According to publication PMC2731525:

target: biglycan (UniProt P21810); assay: solid-phase binding assay
Chain of UniProt P21810 (P21810 38-368): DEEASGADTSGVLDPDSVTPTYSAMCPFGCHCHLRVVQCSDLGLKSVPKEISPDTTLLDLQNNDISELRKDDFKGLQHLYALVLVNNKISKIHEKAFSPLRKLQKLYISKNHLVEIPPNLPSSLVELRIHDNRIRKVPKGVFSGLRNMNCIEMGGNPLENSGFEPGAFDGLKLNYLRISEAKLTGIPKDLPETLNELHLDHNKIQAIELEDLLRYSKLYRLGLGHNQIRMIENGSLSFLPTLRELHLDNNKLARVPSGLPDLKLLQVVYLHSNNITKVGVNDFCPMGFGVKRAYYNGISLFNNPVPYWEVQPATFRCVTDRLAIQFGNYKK

Row | Kd [nM] | Substance
1 | 8.6 | LDL with high apoCIII from patients with type 2 diabetes (from UniProt P02656 21-99) (complex)
2 | 12.2 | LDL with low apoCIII from patients with type 2 diabetes (from UniProt P02656 21-99) (complex)
3 | 9.8 | apoCIII-free LDL isolated from diabetic LDL with high apoCIII/apoB molar ratio (natural protein)
4 | 12.8 | apoCIII-free LDL isolated from diabetic LDL with low apoCIII/apoB molar ratio (natural protein)
